Data: patent US11198871B2, “Riboswitch-mediated regulatory control of gene expression in thermophilic bacteria” (priority 2019, dated 2021)
Like-named read-outs stand apart in the source and are kept apart here.

B1: Tsac 2588 (nucleic acid, listed as Thermoanaerobacterium saccharolyticum)
DNA: ATTGTGTCAGGACAAGTAAATAATAGCTCATATAATTCTGAGAATACGGCTCAGAAGTCTCTACCAGACAACCGTAAATTGTCTGACTATGAGTGAAAGTGTACCTGAGGGTTCCAGCCTTATTGTCCATGTGTAGAAAACAGTAAAGGCGTTCGGACCGAGCGGTACAGGCATTGTATTGCCACACCTGTGGGATAAAAGCCCGGGAGGATAGGTTTCACTCTATGTGTTGGAATCTATCATTCCGGGCTTGTTTATTTTTAAAATTCGTTTTTATTT
B2: Tsac 2584 (nucleic acid, listed as Thermoanaerobacterium saccharolyticum)
DNA: B1 DNA

Tested on: sfGFP
Assay type: cell-based, Geobacillus thermoglucosidasius
Conditions: for fold change (reduction) of maximal normalized fluorescence: 0.25 mM guanosine versus none; for maximal normalized fluorescence: mid-exponential growth, 55° C.
Method: To evaluate the T.s. riboswitches' regulatory activities, a thermophilic fluorescence reporter assay was used that included the use of super-folder green fluorescence protein (sfGFP) which is active in the aerobic thermophile, Geobacillus thermoglucosidasius (G.t.), at a growth temperature of 55° C. Both purine riboswitches from T.s. were inserted downstream of the pRp1S strong promoter respectively in plasmid pG1AK-sf such that the riboswitch controlled the expression of sfGFP once it was introduced into G.t. (see FIG. 2a and Table 1).
To trigger the regulatory response from the riboswitches, guanosine was used as the ligand as cells can import the compound and convert it into guanine enzymatically. […] As an additional control, a point mutation was introduced in the Tsac 2584 aptamer domain at position 74 (C74U). Position 74 is responsible for its interaction with guanine.
In an embodiment, and as depicted in FIG. 8, the normalized fluorescence of the cell culture is defined as: […]
To compare the normalized fluorescence between cultures growing with different ligand concentrations, the normalized fluorescence for each culture was averaged between the mid-log points where the OD was between 0.4 and 0.6.
G. thermoglucosidasius strains transformed with different plasmids were grown aerobically overnight in 5 ml TGP media (supplemental) with 12.5 μg/mL kanamycin at 55° C. and shaken at 200 rpm. The freshly grown overnight culture was used to inoculate 5 mL of fresh TGP media with kanamycin and incubated in the same condition for about 5 hrs when the cultures reached OD600 of about 1.0. This secondary growth culture was used to inoculate 5 ml of Defined Glucose Media (DG) with 250-fold dilution and was sub-aliquoted into a 96-well plate with 200 microliters per well where different concentrations of the effector ligand was added. The plate was incubated in a Greiner-Bio xxx plate reader and the OD600 and the fluorescence intensity (details of excitation and emission) was tracked for 24 hrs. To quantify the normalized fluorescence, the value of the raw fluorescence was taken when the cells were in mid-exponential phase (OD600 0.4-0.6) and divided by the optical density to normalize the fluorescence.

| Molecule | fold change (reduction) of maximal normalized fluorescence [fold] | maximal normalized fluorescence (0.25 mM guanosine) [fluorescence units] | fluorescence in comparison to the control pG1AK parental plasmid (with guanosine) | maximal normalized fluorescence (without guanosine) [fluorescence units] | guanosine-dependent repression of sfGFP (guanosine added, result in words) |
| --- | --- | --- | --- | --- | --- |
| B1 | ~2.5 | 15±0.1 | about 30% | 38±1 |  |
| B2 | ~7 | 2.8±0.1 |  | 20±2 | tight repression |
